Results taken from article PMC9576733, “Cryo-EM structures of the translocational binary toxin complex CDTa-bound CDTb-pore from Clostridioides difficile” (Nature Communications, 2022).
Several values for one entry are separate records, joined by “and”; a condition that tells them apart may be missing. Equal entries are not always repeated.

Tests used:
[1] = biological target: CDTb-pore, wild type (chymotrypsin-activated CDTb oligomer) (Clostridioides difficile) (UniProt O32739); experiment: SPR; CDTb-pore (WT, PSS, SPS) amine-coupled on SPRi-Biochip CS-HD, CDTa injected; room temperature, 50 uL/min; pH 5.5, 10 mM MES, 0.15 M NaCl, 1 mM EGTA, 0.005% Surfactant P20, 5 mM CaCl2; 1:1 model; average of two measurements
[2] = biological target: CDTb-pore, wild type (chymotrypsin-activated CDTb oligomer) (Clostridioides difficile) (UniProt O32739); experiment: cryo-EM structure; CDTa without His-tag added to purified WT CDTb-pore at 3-fold molar excess, unbound CDTa not removed; 10 mM HEPES pH 7.5, 1 mM CaCl2, 0.003% LMNG; classes: di-heptamer, long pore, short pore
[3] = biological target: CDTb-pore PSS-loop mutant (NSS > PSS) (Clostridioides difficile) (UniProt O32739); experiment: SPR; CDTb-pore (WT, PSS, SPS) amine-coupled on SPRi-Biochip CS-HD, CDTa injected; room temperature, 50 uL/min; pH 5.5, 10 mM MES, 0.15 M NaCl, 1 mM EGTA, 0.005% Surfactant P20, 5 mM CaCl2; 1:1 model; average of two measurements
[4] = biological target: CDTb-pore SPS-loop mutant (NSS > SPS) (Clostridioides difficile) (UniProt O32739); experiment: as above
[5] = biological target: CDTb-pore PSS-loop mutant (NSS > PSS) (Clostridioides difficile) (UniProt O32739); experiment: SPR; CDTb-pore (WT, PSS, SPS) amine-coupled on SPRi-Biochip CS-HD, CDTa injected; room temperature, 50 uL/min; pH 5.5, 10 mM MES, 0.15 M NaCl, 1 mM EGTA, 0.005% Surfactant P20 (no calcium); 1:1 model; average of two measurements
[6] = biological target: CDTb-pore SPS-loop mutant (NSS > SPS) (Clostridioides difficile) (UniProt O32739); experiment: as above
[7] = biological target: CDTb-pore, wild type (chymotrypsin-activated CDTb oligomer) (Clostridioides difficile) (UniProt O32739); experiment: as above
[8] = biological target: CDTb-pore PSS-loop mutant (NSS > PSS) (Clostridioides difficile) (UniProt O32739); experiment: SPR; CDTb-pore (WT, PSS, SPS) amine-coupled on SPRi-Biochip CS-HD, CDTa injected; room temperature, 50 uL/min; pH 7.4, 10 mM HEPES, 0.15 M NaCl, 1 mM EGTA, 0.005% Surfactant P20, 5 mM CaCl2; 1:1 model; average of two measurements
[9] = biological target: CDTb-pore SPS-loop mutant (NSS > SPS) (Clostridioides difficile) (UniProt O32739); experiment: as above
[10] = biological target: CDTb-pore, wild type (chymotrypsin-activated CDTb oligomer) (Clostridioides difficile) (UniProt O32739); experiment: as above
[11] = biological target: CDTb-pore PSS-loop mutant (NSS > PSS) (Clostridioides difficile) (UniProt O32739); experiment: SPR; CDTb-pore (WT, PSS, SPS) amine-coupled on SPRi-Biochip CS-HD, CDTa injected; room temperature, 50 uL/min; pH 7.4, 10 mM HEPES, 0.15 M NaCl, 1 mM EGTA, 0.005% Surfactant P20 (no calcium); 1:1 model; average of two measurements
[12] = biological target: CDTb-pore SPS-loop mutant (NSS > SPS) (Clostridioides difficile) (UniProt O32739); experiment: as above
[13] = biological target: CDTb-pore, wild type (chymotrypsin-activated CDTb oligomer) (Clostridioides difficile) (UniProt O32739); experiment: as above
[14] = biological target: the molecule itself; experiment: density gradient ultracentrifugation; CDTb after alpha-chymotrypsin, 0.03% LMNG 1 h 37 °C (LMNG after or before chymotrypsin); 10-30% glycerol, 50 mM HEPES pH 7.5, 100 mM NaCl, 1 mM CaCl2, 0.003% LMNG, 230,139 x g 16 h; A280 of fractions; protomers to heptamer and heptamer to di-heptamer

CDTa (enzymatic A-component of the Clostridioides difficile binary toxin CDT) (CDTa injected)
kon [1]: 152000 M⁻¹ s⁻¹

CDTa (enzymatic A-component of the Clostridioides difficile binary toxin CDT) (enzyme)
stoichiometry N [2]: 1
Kd [3]: 2.29 nM
koff [3]: 0.000376 s⁻¹
kon [3]: 164000 M⁻¹ s⁻¹
Kd [4]: 2.69 nM
koff [4]: 0.000326 s⁻¹
kon [4]: 121000 M⁻¹ s⁻¹
Kd [1]: 2.86 nM
koff [1]: 0.000436 s⁻¹
Kd [5]: 2.27 nM
koff [5]: 0.00132 s⁻¹
kon [5]: 584000 M⁻¹ s⁻¹
Kd [6]: 1.61 nM
koff [6]: 0.000709 s⁻¹
kon [6]: 441000 M⁻¹ s⁻¹
Kd [7]: 1.53 nM
koff [7]: 0.000763 s⁻¹
kon [7]: 498000 M⁻¹ s⁻¹
Kd [8]: 4.93 nM
koff [8]: 0.00108 s⁻¹
kon [8]: 220000 M⁻¹ s⁻¹
Kd [9]: 1.89 nM
koff [9]: 0.000521 s⁻¹
kon [9]: 276000 M⁻¹ s⁻¹
Kd [10]: 3.27 nM
koff [10]: 0.000619 s⁻¹
kon [10]: 189000 M⁻¹ s⁻¹
Kd [11]: 55.1 nM
koff [11]: 0.00567 s⁻¹
kon [11]: 103000 M⁻¹ s⁻¹
Kd [12]: 26.2 nM
koff [12]: 0.00304 s⁻¹
kon [12]: 116000 M⁻¹ s⁻¹
Kd [13]: 28.6 nM
koff [13]: 0.00413 s⁻¹
kon [13]: 144000 M⁻¹ s⁻¹

B1: CDTb-pore, wild type (chymotrypsin-activated CDTb oligomer) (complex)
chain: WEDEDLDTDNDNIPDSYERNGYTIKDLIAVKWEDSFAEQGYKKYVSNYLESNTAGDPYTDYEKASGSFDKAIKTEARDPLVAAYPIVGVGMEKLIISTNEHASTDQGKTVSRATTNSKTESNTAGVSVNVGYQNGFTANVTTNYSHTTDNSTAVQDSNGESWNTGLSINKGESAYINANVRYYNTGTAPMYKVTPTTNLVLDGDTLSTIKAQENQIGNNLSPGDTYPKKGLSPLALNTMDQFSSRLIPINYDQLKKLDAGKQIKLETTQVSGNFGTKNSSGQIVTEGNSWSDYISQIDSISASIILDTENESYERRVTAKNLQDPEDKTPELTIGEAIEKAFGATKKDGLLYFNDIPIDESCVELIFDDNTANKIKDSLKTLSDKKIYNVKLERGMNILIKTPTYFTNFDDYNNYPSTWSNVNTTNQDGLQGSANKLNGETKIKIPMSELKPYKRYVFSGYSKDPLTSNSIIVKIKAKEEKTDYLVPEQGYTKFSYEFETTEKDSSNIEITLIGSGTTYLDNLSITELNSTPEILDEPEVKIPTDQEIMDAHKIYFADLNFNPSTGNTYINGMYFAPTQTNKEALDYIQKYRVEATLQYSGFKDIGTKDKEMRNYLGDPNQPKTNYVNLRSYFTGGENIMTYKKLRIYAITPDDRELLVLSVD
notes: CDTb, Clostridioides difficile, UniProt O32739; cloned as amino acids 40-876 (without signal peptide); domains after cleavage are printed as 1' (W214-A296, domain 1 without the pro-peptide) to 4 (T617-D876); Heptameric pore; also found as a di-heptamer (14 chains); also called WT CDTb; NSS-loop
stoichiometry N [14]: 14 and 7

B2: CDTb F774L mutant (chymotrypsin-activated oligomer) (complex)
chain: WEDEDLDTDNDNIPDSYERNGYTIKDLIAVKWEDSFAEQGYKKYVSNYLESNTAGDPYTDYEKASGSFDKAIKTEARDPLVAAYPIVGVGMEKLIISTNEHASTDQGKTVSRATTNSKTESNTAGVSVNVGYQNGFTANVTTNYSHTTDNSTAVQDSNGESWNTGLSINKGESAYINANVRYYNTGTAPMYKVTPTTNLVLDGDTLSTIKAQENQIGNNLSPGDTYPKKGLSPLALNTMDQFSSRLIPINYDQLKKLDAGKQIKLETTQVSGNFGTKNSSGQIVTEGNSWSDYISQIDSISASIILDTENESYERRVTAKNLQDPEDKTPELTIGEAIEKAFGATKKDGLLYFNDIPIDESCVELIFDDNTANKIKDSLKTLSDKKIYNVKLERGMNILIKTPTYFTNFDDYNNYPSTWSNVNTTNQDGLQGSANKLNGETKIKIPMSELKPYKRYVFSGYSKDPLTSNSIIVKIKAKEEKTDYLVPEQGYTKFSYEFETTEKDSSNIEITLIGSGTTYLDNLSITELNSTPEILDEPEVKIPTDQEIMDAHKIYFADLNLNPSTGNTYINGMYFAPTQTNKEALDYIQKYRVEATLQYSGFKDIGTKDKEMRNYLGDPNQPKTNYVNLRSYFTGGENIMTYKKLRIYAITPDDRELLVLSVD
notes: CDTb, Clostridioides difficile, UniProt O32739; cloned as amino acids 40-876; domains after cleavage printed as W214-D876; Prepared by the same protocol as wild type, without LMNG pretreatment; source: E. coli BL21 Star (DE3), purified as wild type (Glutathione Sepharose 4B), alpha-chymotrypsin, LMNG
stoichiometry N [14]: 14 and 7

B3: CDTb F774G mutant (chymotrypsin-activated oligomer) (complex)
chain: WEDEDLDTDNDNIPDSYERNGYTIKDLIAVKWEDSFAEQGYKKYVSNYLESNTAGDPYTDYEKASGSFDKAIKTEARDPLVAAYPIVGVGMEKLIISTNEHASTDQGKTVSRATTNSKTESNTAGVSVNVGYQNGFTANVTTNYSHTTDNSTAVQDSNGESWNTGLSINKGESAYINANVRYYNTGTAPMYKVTPTTNLVLDGDTLSTIKAQENQIGNNLSPGDTYPKKGLSPLALNTMDQFSSRLIPINYDQLKKLDAGKQIKLETTQVSGNFGTKNSSGQIVTEGNSWSDYISQIDSISASIILDTENESYERRVTAKNLQDPEDKTPELTIGEAIEKAFGATKKDGLLYFNDIPIDESCVELIFDDNTANKIKDSLKTLSDKKIYNVKLERGMNILIKTPTYFTNFDDYNNYPSTWSNVNTTNQDGLQGSANKLNGETKIKIPMSELKPYKRYVFSGYSKDPLTSNSIIVKIKAKEEKTDYLVPEQGYTKFSYEFETTEKDSSNIEITLIGSGTTYLDNLSITELNSTPEILDEPEVKIPTDQEIMDAHKIYFADLNGNPSTGNTYINGMYFAPTQTNKEALDYIQKYRVEATLQYSGFKDIGTKDKEMRNYLGDPNQPKTNYVNLRSYFTGGENIMTYKKLRIYAITPDDRELLVLSVD
notes: as for B2
stoichiometry N [14]: 14 and 7
